Results on one molecule are retold here after patent US9434716B2, “Antigen binding proteins” (Glaxo Group Limited, priority 2011, dated 2016).

Data set [1] concerns the target T1, human SAP (Homo sapiens, UniProt P02743).
T1 construct: from tissue; host or cells: natural human SAP, purified
The data set is described as follows: Competition ELISA with chimeric anti-SAP mAb. Format: binding. Particulars: human SAP coated at 1 μg/mL; purified murine mAb. From the text:
A constant concentration of chimeric anti-SAP mAb was mixed with serial diluted (1:1) amounts of mouse anti-SAP mAbs. Plates were washed and the amount of chimeric antibody bound to the immobilised human SAP was detected using goat anti-human Kappa Light chain peroxidase conjugate (Sigma, A7164). The ELISA was developed using O-phenylenediamine dihydrochloride (OPD) peroxidase substrate (Sigma, P9187).
A general note: ELISA stands for enzyme-linked immunosorbent assay.

The target in data set [2] is T1, human SAP. The data set is described as follows: Western blotting and fragment epitope mapping (CNBr, chymotrypsin). Format: binding. The text has this:
This is consistent with the kinetic stability and resistance to denaturation of SAP (Manning, M. and Colón, W. (2004) Biochemistry, 43: 11248-11254).
B, SDS-PAGE analysis of SAP cleaved with CNBr. […] These were precisely confirmed by mass spectrometry. […] C, SDS-PAGE analysis of SAP digested with chymotrypsin. Left panel: Coomassie blue stain; lane 1, untreated control SAP; lane 2, SAP after chymotrypsin digestion, showing the expected major fragments corresponding to residues 1-140 and 145-204. These were precisely confirmed by mass spectrometry. Right panel: Western blot with SAP-E showing intense staining of intact untreated SAP in lanes 1 (500 ng loaded) and 2 (100 ng), and also residual intact SAP in lanes 3 and 4 which contained the chymotrypsin digested SAP at different loadings. Very weak binding of SAP-E to the residue 1-140 fragment is seen only in lane 3 which was most heavily loaded. […] D, Sequence comparison between human SAP (h) and mouse SAP (m) for residues 136-147. Top panel, differences indicated above by residues shown in black in the murine sequence. Bottom panel, position of this extended loop with 140Y at its apex shown in white in the 3D subunit structure of human SAP. The different residues in the murine sequence are shown in black. The grey spheres represent the calcium atoms bound in the ligand binding pocket.

For data set [3], the target named is T1, human SAP. The data set is described as follows: Immunoradiometric assay, human SAP captured by immobilised sheep polyclonal anti-human SAP antibody. Format: binding. Particulars: all levels of human SAP input; mean of 3 replicates. The text has this: (§1) SAP-K was selected from among the 6 different, most avidly binding, mouse IgG2a monoclonals, derived by standard techniques from immunization with purified human SAP and a conventional fusion to produce hybridomas which were cloned by routine methods. […] This was the case regardless of whether the human SAP had been directly immobilised on plastic surfaces by non-specific adherence or by covalent attachment, or by the specific calcium dependent binding of SAP to immobilised ligands, whether amyloid fibrils or the small molecule ligand, phosphoethanolamine. SAP-K also bound well to directly immobilised SAP in the presence or absence of calcium, and if the SAP had previously been complexed with CPHPC and then covalently ‘fixed’ in the decameric SAP-CPHPC complex (Pepys, M. B. et al (2002) Targeted pharmacological depletion of serum amyloid P component for treatment of human amyloidosis. Nature, 417: 254-259; Kolstoe, S. E. et al (2009) Molecular dissection of Alzheimer's disease neuropathology by depletion of serum amyloid P component. Proc. Natl. Acad. Sci. USA, 106: 7619-7623). SAP-E also bound well to human SAP in all these different configurations.
Each point is the mean of 3 replicates.

Data set [4] addresses T1, human SAP. The data set is described as follows: Biacore (BIAcoreX), human SAP covalently immobilised on the chip. The class given is binding. Particulars: mean and SD of 3 replicate measurements. In general terms: SPR reads the build-up and loss of mass on a sensor chip optically.
The next data set concerns the target T2, native human SAP (Homo sapiens, UniProt P02743).
T2 construct: against both isolated pure human SAP and whole human serum; from tissue; host or cells: whole human serum, and isolated pure human SAP
The data set is described as follows: Double immunodiffusion in agarose gel. The class given is binding. Particulars: isolated pure human SAP and whole human serum.

Data set [5] concerns the target T1, human SAP. The data set is described as follows: Binding of mouse monoclonals to immobilised human SAP in vitro.
Description: SAP-E and SAP-K are from two groups of anti-SAP monoclonals, each group having been tested separately for their binding to human SAP in vitro.
as §1

The subject of data set [6] is mice with systemic AA amyloidosis. The data set is described as follows: SAP-E versus SAP-K in clearing systemic AA amyloid deposits (Example 16). The class given is in vivo, mouse. Particulars: lower doses. Here is the method: AA amyloidosis was induced and confirmed in wild-type C57BL/6 mice as detailed in Example 10 above. After loading the amyloid deposits with human SAP also detailed in Example 10, groups of mice were treated with 3 mg and 1 mg per mouse of the two different antibodies. […] All mice were bled for assay of circulating anti-SAP antibody at days 1, 5 and 15 after dosing with antibody, and all were killed on day 21 for estimation of amyloid load by Congo red staining. All sera were assayed for anti-SAP activity using a robust immunoradiometric assay standardised with purified SAP-E and SAP-K respectively, spiked at known concentrations into normal mouse serum.
Amyloid load was scored by four independent expert observers all blinded to the identity of each tissue examined. The scores of all observers were, as usual highly concordant and for statistical analysis, the total scores of all observers for both spleen and liver for each mouse were summed.

The next data set deals with T3, human CRP (Homo sapiens, UniProt P02741).
T3 sequence (P02741 19-224): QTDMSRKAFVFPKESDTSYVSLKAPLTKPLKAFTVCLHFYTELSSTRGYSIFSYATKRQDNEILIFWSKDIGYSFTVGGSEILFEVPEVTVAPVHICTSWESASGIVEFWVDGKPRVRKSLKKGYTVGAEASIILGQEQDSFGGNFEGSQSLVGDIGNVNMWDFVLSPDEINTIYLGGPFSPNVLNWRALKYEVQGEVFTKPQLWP
The data set is described as follows: Western blotting against CRP. Format: binding. The note with it: western blot, 500 ng and 100 ng loaded.

Data set [7] concerns the target T1, human SAP. The data set is described as follows: Biacore kinetics, human SAP captured on immobilised O-phosphoethanolamine. Format: binding. Particulars: CM5 chip, calcium; bivalent analyte model; 25° C.; for comparison only, avidity effect. Here is the method: O-phosphoethanolamine was immobilised on a Biacore CM5 chip by primary amine coupling in accordance with the manufacturer's instructions. Human SAP was then captured on the surface in the presence of calcium chloride, in order to replicate in the Biacore system in vitro, the precise orientation of SAP molecules bound to amyloid fibrils in vivo. Anti SAP antibodies were then passed over this surface at 256, 64, 16, 4, 1 nM and a binding sensorgrams obtained. Analysis was carried out at 25° C. using 4% BSA, 10 mM Tris, 140 mM NaCl, 2 mM CaCl2, 0.05% surfactant P20, 0.02% Na N3, pH 8.0 as running buffer. […] Data generated were double referenced with a buffer injection over the human SAP surface and analyzed using the bivalent analyte model in the Biacore T100 evaluation software.

The subject of data set [8] is mice with systemic AA amyloidosis. The data set is described as follows: Low dose SAP-E and SAP-K in clearing systemic AA amyloid deposits (Example 17). Format: in vivo, mouse. Particulars: low doses. How it is done: AA amyloidosis was induced and confirmed in wild-type C57BL/6 mice as detailed in Example 10 above. After loading the amyloid deposits with human SAP as also detailed in Example 10, groups of mice (n=10 each) were treated with single doses of either 0.5 mg and 1 mg per mouse of the two different antibodies, or 6 repeated doses of 0.15 mg, given at 3 or 4 day intervals. […] All were killed on day 29 for estimation of amyloid load by Congo red staining.

“Also recorded” adds a separate entry of the source.

T1 sequence (P02743 20-223): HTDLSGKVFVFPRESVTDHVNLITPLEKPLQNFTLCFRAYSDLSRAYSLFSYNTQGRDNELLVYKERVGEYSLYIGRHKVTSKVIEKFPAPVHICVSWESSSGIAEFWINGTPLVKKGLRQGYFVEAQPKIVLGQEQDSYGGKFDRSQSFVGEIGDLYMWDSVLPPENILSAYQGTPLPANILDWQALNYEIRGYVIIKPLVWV
T2 sequence (P02743 20-223): as above

B1: SAP-E: mouse IgG2a monoclonal anti-human SAP antibody, VH SEQ ID NO:7, VL SEQ ID NO:9 (antibody, V domains shown)
VH: QASLQQSGTELVRSGASVKMSCKASGFTFATYNMHWIKQTPGQGLEWIGYIYPGDGNANYNQQFKGKATLTADTSSNTAYMQISSLTSEDSAVYFCARGDFDYDGGYYFDSWGQGTTLTVSS
VL: DIQMTQSPASLSASVGETVTITCRASENIYSYLAWYQQKQGRSPQLLVHNAKTLAEGVPSRVSGSGSGTHFSLKINGLQPEDFGNYYCQHHYGAPLTFGAGTKLELK
For the molecule B1, the “competition with SAP-K chimera” value in the data set with human SAP [1] is “no competition”. For the same molecule, the “binding to native human SAP in western blotting” value with human SAP [2] (after agarose gel electrophoresis in physiological buffers) is on record as “bound”. Moreover, the “binding to human SAP in western blotting from reduced SDS-PAGE” value with human SAP [2] (denatured human SAP) was “only SAP-E bound”. Also, the epitope recognised entry with human SAP [2] (residues of human SAP, CNBr and chymotrypsin fragments) was “region 140-158”. In addition, the “binding to human SAP captured by sheep polyclonal anti-human SAP” value with human SAP [3] is on record as “SAP-E bound better than SAP-K at all levels of human SAP input; also recorded: Substantially more SAP-E than SAP-K bound at all concentrations of human SAP offered”. Besides, the kd with human SAP [4] was 6 ± 4 × 10^−5 sec^−1; with human SAP [7] it was 1.51e-08 s⁻¹. Also, the “binding to native human SAP (immunoprecipitation)” value in the data set with native human SAP is given as “bound apparently equally well to native human SAP”. For the same molecule, the “binding to immobilised human SAP” value with human SAP [5] (abundant immobilised SAP, coating solution 100 μg/ml) is given as “more binding of SAP-E than SAP-K”. For the same molecule, the “binding to human SAP in vitro” value with human SAP [5] (compared within the group of monoclonals) is “strongest binding to SAP, within their groups”. Further, the results for the “potency in clearing amyloid, SAP-E compared with SAP-K” value in [6] and in data set [8] were “apparently more potent than SAP-K at the lower doses” and “again apparently more potent than SAP-K”, respectively. The “reaction with isolated pure human CRP” value with human CRP is given as “did not react at all”. Moreover, the ka with human SAP [7] amounted to 31500 M⁻¹ s⁻¹.
